Measurements taken from patent publication US20230212549A1 (3B PHARMACEUTICALS, published 2023).
Numbered stars: 1 amine (or outer) side, 2 acyl side, 3 side chain; on linkers, the order of the positions; unused ones are H or OH. Bridge positions count the residues as written; N and C are the ends. Square brackets hold non-standard residues; d marks the D form. Primed or numbered codes have the meaning given here. * marks the point of attachment. tMeBn(DOTA-PP) = 1,3,5-trimethylbenzylidene, two thioethers to Cys, third CH2 bound to one N of piperazine whose other N bears DOTA, O=C(O)CN1CCN(CC(=O)O)CCN(CC(=O)N2CCN(Cc3cc(C[*:1])cc(C[*:2])c3)CC2)CCN(CC(=O)O)CC1; Ttds″ = 1,13-diamino-4,7,10-trioxatridecan-succinamic acid spacer, O=C(CCC(=O)[*:2])NCCCOCCOCCOCCCN[*:1]; TBMB(SCH2CH2NH-DOTA) = O=C(O)CN1CCN(CC(=O)O)CCN(CC(=O)NCCSCc2cc(C[*:1])cc(C[*:2])c2)CCN(CC(=O)O)CC1; Ttds = 1,13-diamino-4,7,10-trioxatridecan-succinamic acid, O=C(CCC(=O)[*:2])NCCCOCCOCCOCCCN[*:1]; Ttds(4) = spacer between chelator and peptide, O=C(CCC(=O)[*:2])NCCCOCCOCCOCCCN[*:1]; N4Ac = 6-Carboxy-1,4,8,11-tetraazaundecane, an N4-chelator, NCCNCC(CNCCN)C(=O)*; DOTA = O=C(O)CN1CCN(CC(=O)O)CCN(CC(=O)*)CCN(CC(=O)O)CC1; nBu‑CAyl = n-butylaminocarbonyl, CCCCNC(=O)*; mXylylene = c1cc(C[*:1])cc(C[*:2])c1; Pentanesulfonyl = CCCCCS(=O)(=O)*; NMeF = CN[C@@H](Cc1ccccc1)C(=O)O; 4Amb = NCc1ccc(C(=O)O)cc1; Nle = CCCC[C@H](N)C(=O)O; Hexanoyl = CCCCCC(=O)*; Sar = CNCC(=O)O

T1: recombinant human PREP (R&D systems, #4308-SE) (human, UniProt P48147 1-710)
T1 sequence: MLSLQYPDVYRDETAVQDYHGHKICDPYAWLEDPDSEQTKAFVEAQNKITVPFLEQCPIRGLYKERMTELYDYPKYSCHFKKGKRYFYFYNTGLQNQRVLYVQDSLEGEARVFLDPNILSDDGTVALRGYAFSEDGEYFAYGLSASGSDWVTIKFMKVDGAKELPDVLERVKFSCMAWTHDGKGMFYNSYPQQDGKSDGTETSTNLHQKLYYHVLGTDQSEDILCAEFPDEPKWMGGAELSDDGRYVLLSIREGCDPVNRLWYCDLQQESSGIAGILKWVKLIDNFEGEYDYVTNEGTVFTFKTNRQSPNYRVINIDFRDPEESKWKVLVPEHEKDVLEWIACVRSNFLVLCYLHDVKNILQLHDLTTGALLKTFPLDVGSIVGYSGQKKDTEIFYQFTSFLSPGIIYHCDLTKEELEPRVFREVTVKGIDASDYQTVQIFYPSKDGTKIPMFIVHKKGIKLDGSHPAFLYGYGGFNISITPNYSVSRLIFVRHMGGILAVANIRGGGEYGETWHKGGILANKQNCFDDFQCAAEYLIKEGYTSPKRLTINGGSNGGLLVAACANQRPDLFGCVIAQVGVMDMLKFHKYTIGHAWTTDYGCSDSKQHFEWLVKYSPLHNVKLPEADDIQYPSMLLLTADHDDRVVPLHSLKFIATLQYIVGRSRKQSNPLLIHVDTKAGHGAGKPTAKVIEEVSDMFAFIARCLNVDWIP

B1: Hex-[Cys(tMeBn(InDOTA-AET))-Nmg-Pro-Thr-Gln-Phe-Cys]-OH (peptide)
peptide: Hexanoyl-C[Sar]PTQFC-OH
modifications: linker 1-7 via tMeBn(InDOTA-AET); not fully specified (residue 1); printed as Hex--[C(tMeBn(InDOTA--AET))--Nmg-PTQFC]-OH; also: DOTA complexing indium
notes: also called 3BP-3716
B2: nBu-CAyl-[Cys(tMeBn(DOTA-AET))-Nmg-Pro-Thr-Gln-Phe-Cys]-NH2 (peptide)
peptide: {nBu‑CAyl}-C[Sar]PTQFC-NH2
modifications: linker 1-7 via TBMB(SCH2CH2NH-DOTA)
SMILES: CCCCNC(=O)N[C@H]1CSCc2cc(CSCCNC(=O)CN3CCN(CC(=O)O)CCN(CC(=O)O)CCN(CC(=O)O)CC3)cc(c2)CSC[C@@H](C(N)=O)NC(=O)[C@H](Cc2ccccc2)NC(=O)[C@H](CCC(N)=O)NC(=O)[C@H]([C@@H](C)O)NC(=O)[C@@H]2CCCN2C(=O)CN(C)C1=O
notes: also called 3BP-4621
B3: N4Ac-Ttds-Nle-[Cys-(3MeBn)-Pro-Pro-Thr-Glu-Phe-Cys]-OH (peptide)
peptide: N4Ac-[Ttds″][Nle]CPPTEFC-OH
modifications: linker 3-9 via mXylylene
SMILES: CCCC[C@H](NC(=O)CCC(=O)NCCCOCCOCCOCCCNC(=O)C(CNCCN)CNCCN)C(=O)N[C@H]1CSCc2cccc(c2)CSC[C@@H](C(=O)O)NC(=O)[C@H](Cc2ccccc2)NC(=O)[C@H](CCC(=O)O)NC(=O)[C@H]([C@@H](C)O)NC(=O)[C@@H]2CCCN2C(=O)[C@@H]2CCCN2C1=O
notes: also called 3BP-4161
B4: Hex-[Cys(tMeBn(DOTA-PP))-Pro-Pro-Thr-Gln-Phe-Cys]-Asp-NH2 (peptide)
peptide: Hexanoyl-CPPTQFCD-NH2
modifications: linker 1-7 via tMeBn(DOTA-PP)
SMILES: CCCCCC(=O)N[C@H]1CSCc2cc(cc(CN3CCN(C(=O)CN4CCN(CC(=O)O)CCN(CC(=O)O)CCN(CC(=O)O)CC4)CC3)c2)CSC[C@@H](C(=O)N[C@@H](CC(=O)O)C(N)=O)NC(=O)[C@H](Cc2ccccc2)NC(=O)[C@H](CCC(N)=O)NC(=O)[C@H]([C@@H](C)O)NC(=O)[C@@H]2CCCN2C(=O)[C@@H]2CCCN2C1=O
B5: DOTA-Ttds-Nle-[Cys(3MeBn)-Pro-Pro-Thr-Glu-Phe-Cys]-Asp-Pamb-Arg-NH2 (peptide)
peptide: {DOTA}-[Ttds][Nle]CPPTEFCD[4Amb]R-NH2
modifications: linker 3-9 via mXylylene
SMILES: CCCC[C@H](NC(=O)CCC(=O)NCCCOCCOCCOCCCNC(=O)CN1CCN(CC(=O)O)CCN(CC(=O)O)CCN(CC(=O)O)CC1)C(=O)N[C@H]1CSCc2cccc(c2)CSC[C@@H](C(=O)N[C@@H](CC(=O)O)C(=O)NCc2ccc(C(=O)N[C@@H](CCCNC(=N)N)C(N)=O)cc2)NC(=O)[C@H](Cc2ccccc2)NC(=O)[C@H](CCC(=O)O)NC(=O)[C@H]([C@@H](C)O)NC(=O)[C@@H]2CCCN2C(=O)[C@@H]2CCCN2C1=O
notes: also called 3BP-3321
B6: DOTA-Ttds-Nle-[Cys(3MeBn)-Pro-Pro-Thr-Glu-Phe-Cys]-Asp-His-Phe-Arg-Asp-NH2 (peptide)
peptide: {DOTA}-[Ttds(4)][Nle]CPPTEFCDHFRD-NH2
modifications: linker 3-9 via mXylylene
SMILES: CCCC[C@H](NC(=O)CCC(=O)NCCCOCCOCCOCCCNC(=O)CN1CCN(CC(=O)O)CCN(CC(=O)O)CCN(CC(=O)O)CC1)C(=O)N[C@H]1CSCc2cccc(c2)CSC[C@@H](C(=O)N[C@@H](CC(=O)O)C(=O)N[C@@H](Cc2c[nH]cn2)C(=O)N[C@@H](Cc2ccccc2)C(=O)N[C@@H](CCCNC(=N)N)C(=O)N[C@@H](CC(=O)O)C(N)=O)NC(=O)[C@H](Cc2ccccc2)NC(=O)[C@H](CCC(=O)O)NC(=O)[C@H]([C@@H](C)O)NC(=O)[C@@H]2CCCN2C(=O)[C@@H]2CCCN2C1=O
B7: Hex-[Cys(3MeBn)-Pro-Pro-Thr-Glu-Phe-Cys]-Asp-His-Nmf-Arg-Ttds-Lys(DOTA)-NH2 (peptide)
peptide: Hexanoyl-CPPTEFCDH[NMeF]R[Ttds″]K(DOTA)-NH2
modifications: linker 1-7 via mXylylene
SMILES: CCCCCC(=O)N[C@H]1CSCc2cccc(c2)CSC[C@@H](C(=O)N[C@@H](CC(=O)O)C(=O)N[C@@H](Cc2c[nH]cn2)C(=O)N(C)[C@@H](Cc2ccccc2)C(=O)N[C@@H](CCCNC(=N)N)C(=O)NCCCOCCOCCOCCCNC(=O)CCC(=O)N[C@@H](CCCCNC(=O)CN2CCN(CC(=O)O)CCN(CC(=O)O)CCN(CC(=O)O)CC2)C(N)=O)NC(=O)[C@H](Cc2ccccc2)NC(=O)[C@H](CCC(=O)O)NC(=O)[C@H]([C@@H](C)O)NC(=O)[C@@H]2CCCN2C(=O)[C@@H]2CCCN2C1=O
notes: also called 3BP-3275
B8: DOTA-Ttds-Nle-[Cys(3MeBn)-Pro-Pro-Thr-Glu-Phe-Cys]-Asp-NH2 (peptide)
peptide: {DOTA}-[Ttds][Nle]CPPTEFCD-NH2
modifications: linker 3-9 via mXylylene
SMILES: CCCC[C@H](NC(=O)CCC(=O)NCCCOCCOCCOCCCNC(=O)CN1CCN(CC(=O)O)CCN(CC(=O)O)CCN(CC(=O)O)CC1)C(=O)N[C@H]1CSCc2cccc(c2)CSC[C@@H](C(=O)N[C@@H](CC(=O)O)C(N)=O)NC(=O)[C@H](Cc2ccccc2)NC(=O)[C@H](CCC(=O)O)NC(=O)[C@H]([C@@H](C)O)NC(=O)[C@@H]2CCCN2C(=O)[C@@H]2CCCN2C1=O
notes: also called 3BP-3320
B9: Hex-[Cys(3MeBn)-Pro-Pro-Thr-Glu-Phe-Cys]-Asp-His-Phe-Arg-Asp-Ttds-Lys(DOTA)-NH2 (peptide)
peptide: Hexanoyl-CPPTEFCDHFRD[Ttds″]K(DOTA)-NH2
modifications: linker 1-7 via mXylylene
SMILES: CCCCCC(=O)N[C@H]1CSCc2cccc(c2)CSC[C@@H](C(=O)N[C@@H](CC(=O)O)C(=O)N[C@@H](Cc2c[nH]cn2)C(=O)N[C@@H](Cc2ccccc2)C(=O)N[C@@H](CCCNC(=N)N)C(=O)N[C@@H](CC(=O)O)C(=O)NCCCOCCOCCOCCCNC(=O)CCC(=O)N[C@@H](CCCCNC(=O)CN2CCN(CC(=O)O)CCN(CC(=O)O)CCN(CC(=O)O)CC2)C(N)=O)NC(=O)[C@H](Cc2ccccc2)NC(=O)[C@H](CCC(=O)O)NC(=O)[C@H]([C@@H](C)O)NC(=O)[C@@H]2CCCN2C(=O)[C@@H]2CCCN2C1=O
B10: Hex-[Cys(tMeBn(DOTA-AET))-Pro-Pro-Thr-Gln-Phe-Cys]-OH (peptide)
peptide: Hexanoyl-CPPTQFC-OH
modifications: bridge 1-7; not fully specified (bridges); printed as Hex-[Cys(tMeBn(DOTA-AET))-Pro-Pro-Thr-Gln-Phe-Cys]-OH; also: DOTA-AET attached to tMeBn scaffold

These binders were tested against T2, human fibroblast activation protein (FAP) on WI-38 fibroblasts (human, UniProt Q12884 1-760) (assay: competitive FACS, WI-38 cells, Cy5-labeled peptide as competitor).
T2 construct: FAP-expressing human WI-38 fibroblasts (ECACC)

Row | pIC50 Category (FACS) [pIC50] | Binder
1 | > 8 | B1
2 | > 8 | Pentanesulfonyl-CPPTQFCD-NH2 (linker 1-7 via tMeBn(InDOTA-PP); also: In complex of DOTA (InDOTA), also called 3BP-3717) [Pentyl-SO2-[Cys(tMeBn(InDOTA-PP))-Pro-Pro-Thr-Gln-Phe-Cys]-Asp-NH2]
3 | > 8 | Hexanoyl-CPPTQFCG-OH (linker 1-7 via tMeBn(InDOTA-AET); also: In complex (InDOTA), also called 3BP-3714) [Hex-[Cys(tMeBn(InDOTA-AET))-Pro-Pro-Thr-Gln-Phe-Cys]-Gly-OH]
4 | > 8 | B2
5 | > 8 | B3

These binders were tested against Recombinant human DPP4 (R&D systems, #9168-SE) (human, UniProt P27487 29-766) (assay: cell-based or functional assay).
Recombinant human DPP4 (R&D systems, #9168-SE), sequence (P27487 29-766 limits assumed): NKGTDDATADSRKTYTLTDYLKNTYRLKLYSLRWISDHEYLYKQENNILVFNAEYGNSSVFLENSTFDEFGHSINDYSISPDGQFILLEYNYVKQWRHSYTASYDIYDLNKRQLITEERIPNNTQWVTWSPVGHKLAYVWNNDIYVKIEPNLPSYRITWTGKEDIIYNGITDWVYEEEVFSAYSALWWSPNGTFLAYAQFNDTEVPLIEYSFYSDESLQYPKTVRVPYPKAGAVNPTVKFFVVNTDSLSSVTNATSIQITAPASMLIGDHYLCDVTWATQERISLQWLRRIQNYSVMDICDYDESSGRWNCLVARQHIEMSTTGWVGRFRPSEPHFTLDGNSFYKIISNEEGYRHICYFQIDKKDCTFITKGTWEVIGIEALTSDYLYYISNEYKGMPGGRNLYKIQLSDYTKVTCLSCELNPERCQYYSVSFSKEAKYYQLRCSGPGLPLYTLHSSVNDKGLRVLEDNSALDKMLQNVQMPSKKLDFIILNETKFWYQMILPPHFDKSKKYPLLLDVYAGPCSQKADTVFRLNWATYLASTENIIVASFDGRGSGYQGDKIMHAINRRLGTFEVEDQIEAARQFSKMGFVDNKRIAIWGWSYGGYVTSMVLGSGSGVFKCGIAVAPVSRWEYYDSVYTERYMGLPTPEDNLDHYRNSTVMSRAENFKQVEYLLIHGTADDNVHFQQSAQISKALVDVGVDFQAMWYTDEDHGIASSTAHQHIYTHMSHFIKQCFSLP

Row | pIC50 (DPP4) [pIC50] | Binder
6 | < 6 | B4
7 | < 6 | B5
8 | < 6 | B6
9 | < 6 | B7
10 | < 6 | Hexanoyl-CPPTQFC-NH2 (linker 1-7 via mXylylene) [Hex-[Cys(3MeBn)-Pro-Pro-Thr-Gln-Phe-Cys]-NH2]
11 | < 6 | B8
12 | < 6 | B9
13 | < 6 | B10

What follows are binders tested against T1, recombinant human PREP (R&D systems, …) (assay: cell-based or functional assay).

Row | pIC50 (PREP) [pIC50] | Binder
14 | < 6 | B4
15 | < 6 | B5
16 | < 6 | B6
17 | < 6 | B7
18 | < 6 | Hexanoyl-CPPTQFC-NH2 (linker 1-7 via mXylylene) [Hex-[Cys(3MeBn)-Pro-Pro-Thr-Gln-Phe-Cys]-NH2]
19 | < 6 | B8
20 | < 6 | B9
21 | < 6 | B10

These binders were tested against T3, Recombinant human FAP (R&D systems, #3715-SE) (human, UniProt Q12884 26-760) (assay: SPR (Biacore T200), FAP captured on anti-FAP antibody, single cycle kinetics).
T3 construct: bought; in SPR captured on immobilized anti-FAP antibody MAB3715; also called rhFAP; human recombinant FAP

Row | pKD Category [pKD] | Binder
22 | > 8 | B1
23 | > 8 | B4
24 | > 8 | Pentanesulfonyl-CPPTQFCD-NH2 (linker 1-7 via tMeBn(InDOTA-PP); also: In complex of DOTA (InDOTA), also called 3BP-3717) [Pentyl-SO2-[Cys(tMeBn(InDOTA-PP))-Pro-Pro-Thr-Gln-Phe-Cys]-Asp-NH2]
25 | > 8 | Hexanoyl-CPPTQFCG-OH (linker 1-7 via tMeBn(InDOTA-AET); also: In complex (InDOTA), also called 3BP-3714) [Hex-[Cys(tMeBn(InDOTA-AET))-Pro-Pro-Thr-Gln-Phe-Cys]-Gly-OH]
26 | > 8 | B5
27 | > 8 | B6
28 | > 8 | B7
29 | > 8 | B3
30 | > 8 | B8
31 | > 8 | B9

These binders were tested against T3, Recombinant human FAP (R&D systems, …) (assay: cell-based or functional assay).

Row | pIC50 Category (Activity) [pIC50] | Binder
32 | > 8 | B1
33 | > 8 | Pentanesulfonyl-CPPTQFCD-NH2 (linker 1-7 via tMeBn(InDOTA-PP); also: In complex of DOTA (InDOTA), also called 3BP-3717) [Pentyl-SO2-[Cys(tMeBn(InDOTA-PP))-Pro-Pro-Thr-Gln-Phe-Cys]-Asp-NH2]
34 | > 8 | Hexanoyl-CPPTQFCG-OH (linker 1-7 via tMeBn(InDOTA-AET); also: In complex (InDOTA), also called 3BP-3714) [Hex-[Cys(tMeBn(InDOTA-AET))-Pro-Pro-Thr-Gln-Phe-Cys]-Gly-OH]
35 | > 8 | B2
36 | > 8 | B3
